Results published in patent US20190016806A1 (BPS BIOSCIENCE, published 2019).

Target: PD-1 expressed on Jurkat T cells (NFAT luciferase reporter) (human, UniProt Q15116 25-288)
Experiment: cell-based or functional assay

Sequence of PD-1 expressed on Jurkat T cells (NFAT luciferase reporter) (Q15116 25-288): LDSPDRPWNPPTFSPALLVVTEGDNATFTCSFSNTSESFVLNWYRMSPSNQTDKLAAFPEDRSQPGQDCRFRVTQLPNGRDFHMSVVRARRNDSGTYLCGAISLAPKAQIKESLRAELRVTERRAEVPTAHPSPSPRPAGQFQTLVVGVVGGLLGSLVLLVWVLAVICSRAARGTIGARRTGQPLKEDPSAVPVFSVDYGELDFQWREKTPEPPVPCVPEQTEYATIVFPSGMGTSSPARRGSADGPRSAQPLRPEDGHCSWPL

B1: BPS hAb-10D3 humanized anti-PD-1 neutralizing antibody (antibody, V domains shown)
VH: QVQLQESGPGLVKPSQTLSLTCSVSGYSITSGYFWNWIRQFPGNKLEWIGYISYDGSKNYNPSLKNRVTIIRDTSKNQFSLKLNSVTAEDTATYYCVRGGLPVMDYWGQGTSVTVSS
VL: DIVMTQSPSSLALSVGEKATIQCKSSQSLLDDNNQKNYLAWYQQKPGQPPKLLIFFASTRESGVPDRFIGSGSGTDFTLTISSLQAEDLADYYCQQHYTTPYTFGGGTNVEIK
- EC50 of inhibition of PD-1 signaling (NFAT luciferase reporter in Jurkat T cells with PD-L1-expressing HEK293 cells): 0.38 µg/mL
